This is an account of results in paper PMC11398566.

The target in assay [1] is Gα13 (GNA13, full-length, from the cDNA resource center) (UniProt Q14344).
Assay [2] has the same target. The source holds these as a separate data set.
Assay [3] has the same target. This is another data set of the same source.
Assay [4] addresses Gα12 (GNA12, full-length, from the cDNA resource center) (UniProt Q03113).
The target is the same in assay [5]. The source holds these as a separate data set.
For assay [6] the target is unchanged. This is another data set of the same source.

UniProt Q03113, sequence (Q03113 whole entry): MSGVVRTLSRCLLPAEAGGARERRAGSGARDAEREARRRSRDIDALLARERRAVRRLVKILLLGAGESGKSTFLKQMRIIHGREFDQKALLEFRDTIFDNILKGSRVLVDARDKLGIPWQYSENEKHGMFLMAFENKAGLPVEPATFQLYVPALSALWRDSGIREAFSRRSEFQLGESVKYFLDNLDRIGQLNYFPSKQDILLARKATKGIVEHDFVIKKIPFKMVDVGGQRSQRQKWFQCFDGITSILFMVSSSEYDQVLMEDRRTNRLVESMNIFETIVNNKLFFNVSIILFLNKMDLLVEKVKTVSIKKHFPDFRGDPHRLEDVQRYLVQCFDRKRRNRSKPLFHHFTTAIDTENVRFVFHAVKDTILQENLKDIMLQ
UniProt Q14344, sequence (Q14344 whole entry): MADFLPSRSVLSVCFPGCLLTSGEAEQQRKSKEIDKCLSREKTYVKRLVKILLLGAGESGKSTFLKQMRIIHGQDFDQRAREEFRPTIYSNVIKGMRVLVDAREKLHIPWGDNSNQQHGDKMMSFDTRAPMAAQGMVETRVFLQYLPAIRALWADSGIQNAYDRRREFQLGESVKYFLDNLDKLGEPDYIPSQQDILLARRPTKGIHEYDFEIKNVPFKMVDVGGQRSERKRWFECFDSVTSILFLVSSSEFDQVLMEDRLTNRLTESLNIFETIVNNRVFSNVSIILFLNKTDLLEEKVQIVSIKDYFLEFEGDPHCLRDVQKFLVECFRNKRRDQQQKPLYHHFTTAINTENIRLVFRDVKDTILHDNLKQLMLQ

In turn, “PDZ-RhoGEF-RlucII (Gα12/13 binding domain of human PDZ-RhoGEF, residues 281–483) (from UniProt O15085 281-483) (domain or fragment)” returned an ebBRET between PDZ-RhoGEF-RlucII and rGFP-CAAX (recruitment to the plasma membrane), ΔGα12/13 cells with Gα13, constitutive, GPR56-WT DNA up to 250 ng; no increase without Gα13 in assay [1] of 0.44 BRET ratio. For the same molecule, the ebBRET between PDZ-RhoGEF-RlucII and rGFP-CAAX, ΔGα12/13 cells with Gα13 and GPR56-T383A, time course after 20 nM 10C7, ΔBRET max in assay [2] was 0.5 ΔBRET. Also, the ebBRET between PDZ-RhoGEF-RlucII and rGFP-CAAX, ΔGα12/13 cells with Gα13 and GPR56-WT, time course after 20 nM 10C7, maximal ΔBRET after 24 min in assay [3] is 0.7 ΔBRET.

B1: p115-RhoGEF-RlucII (Gα12/13 binding domain of human p115-RhoGEF, residues 1–244) (domain or fragment)
chain: MEDFARGAASPGPSRPGLVPVSIIGAEDEDFENELETNSEEQNSQFQSLEQVKRRPAHLMALLQHVALQFEPGPLLCCLHADMLGSLGPKEAKKAFLDFYHSFLEKTAVLRVPVPPNVAFELDRTRADLISEDVQRRFVQEVVQSQQVAVGRQLEDFRSKRLMGMTPWEQELAQLEAWVGRDRASYEARERHVAERLLMHLEEMQHTISTDEEKSAAVVNAIGLYMRHLGVRTKSGDKKSGRNF
Consider B1, for which, in assay [4], the ebBRET between p115-RhoGEF-RlucII and rGFP-CAAX (recruitment to the plasma membrane), ΔGα12/13 cells with Gα12, constitutive, GPR56-WT DNA up to 250 ng; no increase without Gα12 stood at 0.44 BRET ratio; the ebBRET between p115-RhoGEF-RlucII and rGFP-CAAX, ΔGα12/13 cells with Gα12, constitutive, increasing GPR56-T383A DNA, maximum was determined as 0.228 BRET ratio. For the same molecule, in assay [5], the ebBRET between p115-RhoGEF-RlucII and rGFP-CAAX, ΔGα12/13 cells with Gα12 and GPR56-T383A, time course after 20 nM 10C7, ΔBRET max was 0.2 ΔBRET. For the same molecule, the ebBRET between p115-RhoGEF-RlucII and rGFP-CAAX, ΔGα12/13 cells with Gα12 and GPR56-WT, time course after 20 nM 10C7, maximum ΔBRET at 8 min in assay [6] was 0.19 ΔBRET.
